Measurements published in patent US20210253725A1 (BIONTECH, published 2021).

T1: CD27 expressed on the cell surface (HT1080_CD27 cells) (human, UniProt P26842 20-260)
T1 sequence (looked up): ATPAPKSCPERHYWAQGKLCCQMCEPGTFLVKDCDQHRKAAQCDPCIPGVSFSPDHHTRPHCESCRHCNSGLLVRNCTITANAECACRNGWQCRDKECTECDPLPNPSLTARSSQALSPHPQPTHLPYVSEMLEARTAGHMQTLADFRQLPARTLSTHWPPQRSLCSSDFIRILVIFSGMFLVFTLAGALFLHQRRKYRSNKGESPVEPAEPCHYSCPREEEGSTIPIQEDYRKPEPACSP

T2: CD27 protein (His-tagged, Sino Biological Inc. 10039-H08B1) (human, UniProt P26842 20-192)
T2 construct: bought; coated onto ELISA plates; also called human CD27; recombinant protein; not shown: His tag
T2 sequence (looked up): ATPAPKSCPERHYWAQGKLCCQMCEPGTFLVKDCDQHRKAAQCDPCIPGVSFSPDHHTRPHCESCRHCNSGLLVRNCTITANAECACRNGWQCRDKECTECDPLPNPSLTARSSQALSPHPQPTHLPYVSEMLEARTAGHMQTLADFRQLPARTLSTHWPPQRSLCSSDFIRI


How the values were obtained:
[1] = molecular target: T1, CD27 expressed on the cell surface …; assay: cell-based or functional assay
[2] = molecular target: T2, CD27 protein (His-tagged, Sino …); assay: ELISA on coated His-tagged CD27
[3] = molecular target: T1, CD27 expressed on the cell surface …; assay: cellular binding assay, HT1080_CD27 cells
Further: test concentration or dose not given here.

| IL-8, cross-linked by F(ab')2 fragment [abs. corr.] [1] [abs. corr.] | IL-8 [abs. corr.] [1] [abs. corr.] | ELISA [abs. corr.] [2] [abs. corr.] | Cellular binding assay [RFU] [3] [RFU] | Binder |
| --- | --- | --- | --- | --- |
| 1.47 | 0.463 | 3.37 | 397 | P018.S.03.A.D02 (antibody, V domains shown, V regions on human Ig constant parts; also called AB27_47) VH: QSVEESGGRLVTPGTPLTLTCTVSGLSLSSYDMSWVRQAPGKGLEWIGYIWSGGTTDYASWAKGRFTISKTSTTVDLKIISPTTEDTATYFCARGYVEFDLWGPGTLVTVSS VL: DPVLTQTPPSVSAAVGGTVTINCQSSQSLYSNNYLSWYQQKPGQPPKVLIWPASSLASGVPSRFKGSGSGTQFTLTISELQSDDAATYYCQGTFYDSGWLSTFGGGTEVVVK |
| 1.67 | 0.534 | 3.37 | 407 | P018.S.08.A.D02 (antibody, V domains shown, V regions on human Ig constant parts; also called AB27_138) VH: QSVEESGGRLVTPGTPLTLTCTVSGFSLSHYHILWVRQAPGEGLKYIGITLNNGRIDYATWAKGRFTISKTSTTVDLEITSPTTEDTATYFCAKYFVSESYDLWGQGTLVTVSS VL: TAVLTQTPSPVSAAVGSTVTINCQASQSVYNDNWLSWYQQKPGQPPKLLIYGASTLASGVPSRFKGSGSGTQFTLTISDVQSGDAATYYCLGGYKDNSDNVFGGGTEVVVK |
| 1.22 | 0.566 | 3.59 | 424 | P018.S.06.A.B03 (antibody, V domains shown, V regions on human Ig constant parts; also called AB27_99) VH: QSVEESGGRLVTPGTPLTLTCTVSGFSLSSYDMIWVRQAPGKGLEWIGIIYLTDTTYYANWAKGRFTISKTSTTVDLKISSPTTEDTATYFCARHLDTSSGGFYFNLWGQGTLVTVSS VL: AQVLTQTPSSVSAAVGGTVTINCQASQSVYNSKILAWYQQKPGRPPKLLIYDASTLASGVPSRFKGSGSGTQFTLTISGVQSDDAATYFCQGEFTCTSADCIAFGGGTEVVVK |
| 1.34 | 0.612 | 3.37 | 346 | P018.S.07.A.B03 (antibody, V domains shown, V regions on human Ig constant parts; also called AB27_115) VH: QSVEESGGRLVTPGTPLTLTCTVSGFSLSSYAMGWVRQAPGKGLEWIGDIYGSGSTYYASWAKGRFTFSRTSTTVDLKMTSLTTEDTATYFCARSKGYNYNLWNLWGQGTLVTVSS VL: DIVMTQTPSSVSAAVGGTVTINCQASQNIYTNLAWYQQKPGQRPKLLIYDASDLASGVPSRFSGSGSGTEYTLTISDLESADAATYYCQTYSYSGSSSANPFGGGTEVVVK |
| 1.53 | 0.235 | 3.37 | 415 | P018.S.04.A.C02 (antibody, V domains shown, V regions on human Ig constant parts; also called AB27_69) VH: QEQLVESGGDLVKPEGSLTLTCTASGFSFSSSYYMSWVRQAPGKGLEWIACIDTVDNYTYYASWAKGRFTISKTSSTTVSLQMTSLTAADTATYFCARERIAYNTDYFNLWGPGTLVTVSS VL: AQVLTQTPSPVSAAVGGTVTISCQSSQSLYNYNNLAWYQQKPGQPPKLLIYSVSNLASGVPSRFGGGGSGTQFTLTISDLQSADAATYYCQGYYSGAVYTFGGGTEVVVK |
| 1.76 | 0.201 | 3.48 | 374 | P018.S.02.A.B05 (antibody, V domains shown, V regions on human Ig constant parts; also called AB27_31) VH: QEQLVESGGGLVQPEGSLTLTCKASGFDFSSSYYMSWVRQAPGKGLEWIACIDTADGYTYYASWAKGRFTISKTSSTTVSLQMTSLTAADTATYFCARERIAYNTDYFNLWGPGTLVTVSS VL: AQVLTQTPSPVSAAVGGTVTISCQSSQSLYNYNNLAWYQQKPGQPPKLLIYSVSNLASGVPSRFGGSGSGTQFTLTISDLQSDDAATYYCQGYYSGAVYTFGGGTEVVVK |
| 1.4 | 0.067 | 3.38 | 252 | P018.S.02.A.H05 (antibody, V domains shown, V regions on human Ig constant parts; also called AB27_40) VH: QSLEESGGDLVKPGASLTLTCTASGIDFSSSSMCWVRQAPGKGLEWIACIDTGSSGRTDYASWAKGRFTLSKTSATTVTLQMTSLTAADTATYFCTRYGDYAGYGYDSFDPWGPGTLVTVSS VL: AQVLTQTPSSVSAAVGGTVTINCQASQNINNWCSWYQQKPGQPPKLLIAYASTLASGVSSRFKGSGSGTQFTLTISGVQSDDAATYYCQQTFDCTDVENVFGGGTEVVVK |

Further lines, the binder ahead of its results:

| Binder | IL-8, cross-linked by F(ab')2 fragment [abs. corr.] [1] [abs. corr.] | IL-8 [abs. corr.] [1] [abs. corr.] | ELISA [abs. corr.] [2] [abs. corr.] | Cellular binding assay [RFU] [3] [RFU] |
| --- | --- | --- | --- | --- |
| P018.S.01.A.G04 (antibody, V domains shown, V regions on human Ig constant parts; also called AB27_23) VH: QEQLVESGGGLVQPEGSLTLTCTASGVSFSNNYYISWVRQAPGKGLEWIACVYTGDDDYTYYPSWAKGRFTISKTSSTTVTLQMTSLTAADTATYFCAREILYPADTDSFDLWGPGTLVTVSS VL: AFELTQTPSSVEAAVGGTVTIKCQASESISSRLAWYQQKPGQPPKLLIYRASTLASGVPSRFKGSGSGTDFTLTISDLESADAATYYCQAYVGISSGGYIFGGGTEVVVK | 1.15 | 0.273 | 3.77 | 388 |
| P018.S.07.A.H04 (antibody, V domains shown, V regions on human Ig constant parts; also called AB27_132) VH: QSLEESGGRLVTPGTPLTLTCTVSGLSLSSYDMSWVRQAPGKGLEWIGYIWSGGSTDYASWAKGRFTISKTSTTVDLKIISPTTEDTATYFCARGYVEFDLWGPGTLVTVSS VL: DPVLTQTPPSVSAAVGGTVTINCQSSQSLYSNNYLSWYQQKAGQPPKVLIWPASSLASGVPSRFKGSASGTQFTLTISELQSDDAATYYCQGTFYDSGWLSAFGGGTEVVVK | 1.86 | 0.158 | 3.4 | 386 |
| P018.S.09.A.D02 (antibody, V domains shown, V regions on human Ig constant parts; also called AB27_150) VH: QSLEESGGRLVTPGTPLTLTCTASGFSLSKYDMGWFRQAPGKGLEWIGMIGASDRTYYASWVKGRFTISKTSTTVDLRITSPTTEDTATYFCAREYPDARGYYYNLWGPGTPVTVSS VL: ALVMTQTPASVEAAVGGTVTINCQASQSISDLLAWYQQKPGQPPKLLIYDASDLASGVPSRFSGSGSGTEFTLTISGVQSDDAATYYCQQGYSITNVDNVFGGGTEVVVK | 1.75 | 1.01 | 3.37 | 337 |
| P018.S.01.A.D02 (antibody, V domains shown, V regions on human Ig constant parts; also called AB27_11) VH: QSLEESGGRLVTPGTPLTLTCTASGFSLSKYDMGWFRQAPGKGLEWIGMIGASDSTYYASWVKGRFTISKTSTTVDLRITSPTTEDTATYFCAREYPDARGYYYNLWGPGTPVTVSS VL: ALVMTQTPASVEAAVGGTVTINCQASQSISDLLAWYQQKPGQPPKPLIYDASDLASGVPSRFKGSGSGTQFTLTISGVQSDDAATYYCQQGYSITNVDNVFGGGTEVVVK | 1.67 | 0.675 | 3.26 | 323 |
| P018.S.05.A.D04 (antibody, V domains shown, V regions on human Ig constant parts; also called AB27_87) VH: QSLEESGGDLVKPGASLTLTCTASEFDFNNNAMCWVRQAPGKGLEWIACIYIGNGGTWYASWAKGRFTISKSSSTTVTLQVTSLTAADTATYFCARGENIAYFILWGPGTLVTVSS VL: DIVMTQTPASVSAAVGGTVTIKCQASQSINSWLSWYQQKPGQPPKLLIYKASTLASGVPSRFKGSGSGTEFTLTISDLESADAATYYCQGYYYYSSSNYASNAFGGGTEVVVK | 1.53 | 0.246 | 3.37 | 317 |
| P018.S.03.A.H04 (antibody, V domains shown, V regions on human Ig constant parts; also called AB27_62) VH: QSLEESGGRLVTPGTPLTLTCTASGFSLSNYSMNWVRQAPGKGLEWIGIINTYGSAYYASWAKGRFTISKTSTTVDLKMTSLTTEDTATYFCARDAGGSTVPWFFDVWGPGTLVTVSS VL: AYDMTQTPASVEVAVGGTVTIKCQASQTISNYLAWYQQKPGQRPKLLIYDASKLASGVPSRFDGSGSGTEYTLTISGVGSADAATYYCQQGYADSNVDNVFGGGTEVVVK | 1.23 | 0.211 | 3.59 | 334 |
| P018.S.07.A.B04 (antibody, V domains shown, V regions on human Ig constant parts; also called AB27_116) VH: QSVEESGGRLVTPGTPLTLTCTVSGFSLSSYDMIWVRQAPGKGLEWIGIIYLTDTTYYANWTKGRFTISKTSTTVDLKISSPTTEDTATYFCARHLDTSSGGFYFNLWGQGTLVTVSS VL: AQVLTQTPSSVSAAVGGTVTINCQASQSVYNSKILAWYQQKPGRPPKLLIYDASTLASGVPSRFKGSGSGTQFTLTISGVQSDDAATYFCQGEFTCTSADCIAFGGGTEVVVK | 1.67 | 0.304 | 3.63 | 382 |
| P018.S.02.A.F05 (antibody, V domains shown, V regions on human Ig constant parts; also called AB27_35) VH: QEQLVESGGDLVKPEGSLTLTCTASGFSFSSSYYMSWVRQAPGKGLEWIACIDTVDNYTYYASWAKGRFTISKTSSTTVSLQMTSLTAADTATYFCARERIAYNTDYFNLWGPGTLVTVSS VL: AQVLTQTPSPVSAAVGGTVTISCQSSQSLYNYNNLAWYQQKPGQPPKLLIYSASNLASGVPSRFGGSGSGTQFTLTISDLQSDDAATYYCQGYYSGAVYTFGGGTEVVVK | 1.17 | 0.395 | 3.44 | 307 |
| P018.S.04.A.B01 (antibody, V domains shown, V regions on human Ig constant parts; also called AB27_66) VH: QEQLVESGGDLVKPGGTLTLTCTASGFSFSSSYYMSWVRQAPGKGLEWIACIDTADAYTYYASWAKGRFTISKTSSTTVSLQMTSLTAADTATYFCARERIAYNTDYFNLWGPGTLVTVSS VL: AQVLTQTPSPVSAAVGGTVTISCQSSQSLYNYNNLAWYQQKPGQPPKLLIYSASNLASGVPSRFGGSGSGTQFTLTISDLQSDDAATYYCQGYYSGAVYTFGGGTEVVVK | 1.67 | 0.508 | 3.38 | 330 |
